± gives the uncertainty stated by the source.
Assay: amyloid nucleation score (Sup35N fusion, yeast selection) (log enrichment); library NNK1; higher = more nucleation; inactive = no reads after selection
Procedure, shortened: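 Peptides of 20 random codons fused to Sup35N were expressed in psi-negative yeast, induced 24 hours with 100 μM copper sulfate, then grown 7 days at 30°C on medium lacking adenine and uracil. Input and output plasmid inserts were Illumina-sequenced. Nucleation score is the DiMSum log enrichment of output over input reads, centred on the mode score of non-aggregating sequences, excluding sequences with under 100 input reads. Random libraries had three technical output replicates.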
In the case of SNLLTCPKYFVVTFFCL, the amyloid nucleation score is reported as 0.211 ± 0.26. With RVSKYQYCIMYWRYRAI the amyloid nucleation score was 0.442 ± 0.56. VCIECTVAVKFHGYMRHSCC showed an amyloid nucleation score of 1.09 ± 0.54. SIYIVNSLALVGMGLMSNYG gave an amyloid nucleation score of 2.81 ± 0.23. In the case of ATLEGVCNINHPSCCASLLD, the amyloid nucleation score is reported as 0.002 ± 0.61. For FWNLVF, the amyloid nucleation score was 1.36 ± 0.64. In the case of TGWLWYQHRWSDTWLPGTMR, the amyloid nucleation score is reported as 2.04 ± 0.15. In the case of NSIHFCGGGRLHSAKLDVSS, the amyloid nucleation score is reported as “inactive”. Substance WQLYIEYFE has an amyloid nucleation score of 0.128 ± 0.36. For ISTNLHGDIKMVFVAIPWQE, the amyloid nucleation score was 4.85 ± 0.09. Work on LLSFAITCDSPVSRSVLFIR yielded an amyloid nucleation score of -0.53 ± 0.58. EIVACSWKKELIRAW gave an amyloid nucleation score of -0.209 ± 0.38. In the case of EEYNVNCTSFVGRFSRC, the amyloid nucleation score is reported as -0.008 ± 0.5. Work on TFMNRLPMNLDLLIGLTCNL yielded an amyloid nucleation score of 0.492 ± 0.38. RKHIRYTLVREIPLKSFSQY gave an amyloid nucleation score of 0.043 ± 0.28. Work on IRLMRWGRCVGISVEGVC yielded an amyloid nucleation score of 0.789 ± 0.46. Work on RFLGIRTATMDMGSKERMWV yielded an amyloid nucleation score of 0.601 ± 0.44. REYETWLQSQRQNLSDLQK gave an amyloid nucleation score of 0.173 ± 0.33. AKSREWGDIARFSHPPALRA gave an amyloid nucleation score of -0.147 ± 0.4. In the case of YVWMSDPSVTNHRGRLVDMG, the amyloid nucleation score is reported as 5.02 ± 0.098. In the case of CGMARWSRKSTELAHKQNVD, the amyloid nucleation score is reported as 0.277 ± 0.61. Substance ALNYSRGMTMVGVCLPHKLT has an amyloid nucleation score of -0.147 ± 0.3. In the case of VEWASRDTHWRSLSLIIYLG, the amyloid nucleation score is reported as “inactive”. With CRIVKARDGC the amyloid nucleation score was -1.23 ± 2.4. SRPYLLRLR gave an amyloid nucleation score of 0.455 ± 0.57. Substance RARQNAFREW has an amyloid nucleation score of -0.301 ± 0.35. Substance TRLLSYFDTRRELNCKVYYN has an amyloid nucleation score of -0.053 ± 0.66. For SCAAILEDVVHSAHILYLSH, the amyloid nucleation score was -0.92 ± 0.96. RFWAACSFTDGR showed an amyloid nucleation score of 1.71 ± 0.13. Work on WNQIAYNYRMLMLYFVTHYW yielded an amyloid nucleation score of 0.327 ± 0.5. With LYESELLNNHQETSPQSSEG the amyloid nucleation score was -0.349 ± 0.56. Work on YYPVKSFELGWSHLGGKHWA yielded an amyloid nucleation score of 1.34 ± 0.7. In the case of CDQASL, the amyloid nucleation score is reported as “inactive”. Substance QAHLNLVSRIIIMWS has an amyloid nucleation score of 0.067 ± 0.79. In the case of KCRVHSSN, the amyloid nucleation score is reported as -1.08 ± 1.5. For CLARNSYPDVFRSETGKEAV, the amyloid nucleation score was -0.093 ± 0.7. Substance LWYCYYSVVFILSGALSHCV has an amyloid nucleation score of -0.252 ± 1.4. PDDSKFSNV showed an amyloid nucleation score of 0.902 ± 0.88. Work on WVTVPNTKKTNVLFGQWTIV yielded an amyloid nucleation score of -0.379 ± 0.39. In the case of VTVLSSVLIL, the amyloid nucleation score is reported as 0.332 ± 0.27. Substance CWLGCYPSSGEQWGGWFNAI has an amyloid nucleation score of -0.344 ± 0.7. WMYDSLDTSMTLANSHLQTL showed an amyloid nucleation score of -0.098 ± 0.51. In the case of LSMRWYTSPFAFGIS, the amyloid nucleation score is reported as -0.114 ± 0.88. For YSMLQFWDRAAMSV, the amyloid nucleation score was -0.294 ± 1.5. Substance LAWCNY has an amyloid nucleation score of 0.765 ± 0.57. Substance GAVARIIDAVCVRLV has an amyloid nucleation score of -0.643 ± 1.1. With RQVPPISGAISWGDSPSNGG the amyloid nucleation score was 0.18 ± 1.2. In the case of SNMSHLNRG, the amyloid nucleation score is reported as 0.649 ± 0.75. Work on RLMTASTALGPYTRDLGAYY yielded an amyloid nucleation score of -0.089 ± 1.2. QYSVHINNVTLRPKHRYVQ gave an amyloid nucleation score of -0.065 ± 0.29. GGTNFKDDDV showed an amyloid nucleation score of 0.683 ± 1. In the case of YATDCLLVSFGTSGECIHRL, the amyloid nucleation score is reported as “inactive”. For SWGLGSFLY, the amyloid nucleation score was 0.06 ± 0.36. For RILRCNPLLCRNSACTGIGA, the amyloid nucleation score was 0.742 ± 0.75. In the case of ESAFHASVGALRMHTSSRVC, the amyloid nucleation score is reported as 1.09 ± 0.35. GSRYHEECRWTCREAPTDAR gave an amyloid nucleation score of -1.07 ± 1.6. SAQSTILICLHKGLDMSERH gave an amyloid nucleation score of 5.8 ± 0.077. Substance INIGFMKGV has an amyloid nucleation score of 0.416 ± 0.61. VLWPLTISLWC gave an amyloid nucleation score of -0.236 ± 0.51. Work on IFIFYGTRGSFRLRVAY yielded an amyloid nucleation score of 2.72 ± 0.24. In the case of VVSSRSIMGTVRMNEKVVAT, the amyloid nucleation score is reported as -0.563 ± 0.46. For RFCRHEMVFVLDLNTYISVP, the amyloid nucleation score was 0.887 ± 0.26. In the case of RSSCVELGWIGWRARTNR, the amyloid nucleation score is reported as 0.407 ± 0.57. For LGSNNWVFGYGR, the amyloid nucleation score was “inactive”. Work on FMWKINWRENLYRLYSFSAY yielded an amyloid nucleation score of -0.11 ± 0.51. Substance LINFLLVTVCTSWIGISLCV has an amyloid nucleation score of 0.358 ± 0.39. With IPKVRTRVLGIISTTSLLGG the amyloid nucleation score was 0.037 ± 0.97. With QYMLFMYLGVVLKCH the amyloid nucleation score was 0.644 ± 0.59. For IFYLRFPVLLVISPRCALYI, the amyloid nucleation score was 0.623 ± 0.75. For YPGFVCKVWIVVARKSFELE, the amyloid nucleation score was “inactive”.

Reference: the supplement of paper PMC12042874
